Assay results: patent US9938505B2, “Polypeptide composition and culture method for pluripotent stem cell using same” (FUJIFILM Corporation, priority 2013, dated 2018)

How the values were obtained:
[1] = Aggregation after dialysis (removal of urea); assay type: physicochemical; conditions: after stepwise dialysis against PBS, 1.5 M NaCl, 0.5 M L-arginine, 1 mM EDTA, pH 7.4
Method: For RCP-1 to RCP-10 and RCP-17, each of the purified polypeptide solutions was dialyzed using SLIDE-A-LIZER (trade name, 3.5 K MWCO.). Basically, by using a dialysis buffer (PBS, 1.5 M NaCl, 0.5 M L-arginine, 1 mM EDTA, pH 7.4) as an outer dialysate, urea was removed by stepwise dialysis. The concentration of the end-product of dialysis was calculated from the absorbence at 280 nm by using NANODROP (trade name, Thermo Fisher Scientific Inc.).
Furthermore, the indices of hydrophobicity determined for each of the amino acids were summed up, the obtained value was divided by the number of the amino acids, and the outcome was determined as the GRAVY value (see Kyte J., Doolittle R. F. (1982), J. Mol. Biol, 157: 105-132). The GRAVY value is an index of the hydrophilicity and hydrophobicity of a polypeptide calculated from the degree of hydrophobicity of the amino acids contained in each polypeptide. The greater the GRAVY value, the more the polypeptide is hydrophobic, and the smaller the GRAVY value, the more the polypeptide is hydrophilic. The results are shown in Table 4. • Whether or not aggregation was occurred was evaluated based on the scale of G, A, and B as shown below. The results are summarized in Table 4. • G: The formation of an aggregate was not observed. • A: The formation of particles having a particle size of about 100 nm was observed. • B: The formation of an aggregation of particles having a particle size of equal to or greater than 1 mm was visually observed.

[2] = tested on: iPS cells; assay: Growth evaluation, growth curves over 8 days; assay type: cell-based, human; conditions: FIG. 2
Method: The iPS cells collected in the same manner as in <Cell adhesiveness evaluation 1> were seeded into a 96-well plate, onto which RCP-1, RCP-11, and natural human vitronectin were adsorbed, at a ratio of 250 cells/well and cultured for 8 days in a 5% CO2 incubator at 37° C. The number of adhesive cells after different days of culture was measured in the same manner as in <Cell adhesiveness evaluation 1>, thereby obtaining growth curves. […] In FIG. 2, a black rhombus indicates a case using RCP-1, and a black square indicates a case using RCP-11.
From the increase and decrease in the obtained number of cells, the doubling time was calculated. As a result, it was confirmed that it takes 46.4±2.1 hours for the number of cells to be doubled in a case where RCP-1 is used, and 67.7±2.1 hours in a case where RCP-11 is used.

[3] = tested on: iPS cells; assay: Cell adhesiveness evaluation 3 (RCP-1 at 125 to 1,000 pmol/cm^2); assay type: cell-based, human; conditions: amount added equal to or greater than 125 pmol/cm^2
Method: The cell adhesiveness was evaluated in the same manner as in <Cell adhesiveness evaluation 1>, except that RCP-1 was used after the concentration thereof was adjusted to 125 pmol/cm^2 to 1,000 pmol/cm^2 by using PBS. In Table 9, the cell adhesion rate is expressed as relative value calculated by regarding a cell adhesion rate with respect to the culture vessel, onto which natural vitronectin is adsorbed at a concentration of 130 pmol/cm^2, as being 100. N=3.

[4] = tested on: iPS cells; assay: Evaluation of maintenance of undifferentiated state (colony form, NANOG staining); assay type: cell-based, human; conditions: FIGS. 4A to 4E; after culture for 1 month
Method: iPS cells collected in the same manner as in <Cell adhesiveness evaluation 1> were suspended in TeSR2. The iPS cells were seeded into 6-well plate (Tissue culture-treated, Falcon), onto which each of the samples 1, 2, 5, 6, and 7 used in <Cell adhesiveness evaluation 1> was adsorbed in the same manner as in <Cell adhesiveness evaluation 1>, and cultured in a CO2 incubator at 37° C. Except for the day after the seeding, the medium was replaced every day. In the same method as described above, the cells were subcultured every six days. FIGS. 3A to 3E show forms of the iPS cells cultured on each of the samples.
After being cultured for 1 month under the conditions described above, the cells were immobilized using 4% paraformaldehyde and treated with 1% Triton-X/PBS so as to enhance the membrane permeability. After the cells were subjected to a blocking treatment using an IMAGE IT SIGNAL ENHANCER (trade name, Invitrogen), an anti-human NANOG antibody (AF 1997, R&D Systems, Inc.), an ALEXA FLUOR 555 binding rabbit anti-goat IgG antibody (Invitrogen), and DAPI (Dojindo Molecular Technologies, Inc.) were added thereto for labeling, and the cells were imaged using a fluorescence microscope. FIGS. 4A to 4E show the fluorescence microscopic images.
FIGS. 3A and 4A show the iPS cells cultured on RCP-1; FIGS. 3B and 4B show the iPS cells cultured on RCP-11; FIGS. 3C and 4C show the iPS cells cultured on natural human vitronectin; FIGS. 3D and 4D show the iPS cells cultured on rLaminin-5; and FIGS. 3E and 4E show the iPS cells cultured on rLaminin-511. The scale bar in the images indicates […]. In FIGS. 3A to 3E, the images on the left side are full images of the colony, and the images on the right side are magnified images. In FIGS. 4A to 4E, the images on the left side are images of the cells stained with DAPI, and the images on the right side are images of the cells stained with an anti-NANOG antibody. The scale bar in FIGS. 3A to 4E indicates 200 μm.

| Molecule | Aggregation [1] | cell growth properties (in words) [2] | adhesiveness of iPS cells (in words) [3] | NANOG expression / maintenance of undifferentiated state [4] | number of cells on Day 8 of culture, as fraction of the case where RCP-1 was used [2] |
| --- | --- | --- | --- | --- | --- |
| RCP-1: recombinant polypeptide SEQ ID NO: 14; human vitronectin positions 1-55, 269-459, methionine on N-terminal (protein, Synthetic peptide RCP-1) MDQESCKGRCTEGFNVDKKCQCDELCSYYQSCCTDYTAECKPQVTRGDVFTMPEDEPSQEECEGSSLSAVFEHFAMMQRDSWEDIFELLFWGRTSAGTRQPQFISRDWHGVPGQVDAAMAGRIYISGMAPRPSLAKKQRFRHRNRKGYRSQRGHSRGRNQNSRRPSRATWLSLFSSEESNLGANNYDDYRMDWLVPATCEPIQSVFFFSGDKYYRVNLRTRRVDTVDPPYPRSIAQYWLGCPAPGHL | A (The formation of particles having a particle size of about 100 nm was observed.) | higher cell growth properties compared to RCP-11 | equivalent to the cell adhesion rate of the natural vitronection | strongly expressed NANOG in the entirety of the colony | – |
| RCP-11: recombinant polypeptide SEQ ID NO: 24; positions 1-459, corresponds to the sequence of natural human vitronectin, GPLG on N-terminal (protein, GPLG N-terminal extension; Synthetic peptide RCP-11) GPLGDQESCKGRCTEGFNVDKKCQCDELCSYYQSCCTDYTAECKPQVTRGDVFTMPEDEYTVYDDGEEKNNATVHEQVGGPSLTSDLQAQSKGNPEQTPVLKPEEEAPAPEVGASKPEGIDSRPETLHPGRPQPPAEEELCSGKPFDAFTDLKNGSLFAFRGQYCYELDEKAVRPGYPKLIRDVWGIEGPIDAAFTRINCQGKTYLFKGSQYWRFEDGVLDPDYPRNISDGFDGIPDNVDAALALPAHSYSGRERVYFFKGKQYWEYQFQHQPSQEECEGSSLSAVFEHFAMMQRDSWEDIFELLFWGRTSAGTRQPQFISRDWHGVPGQVDAAMAGRIYISGMAPRPSLAKKQRFRHRNRKGYRSQRGHSRGRNQNSRRPSRATWLSLFSSEESNLGANNYDDYRMDWLVPATCEPIQSVFFFSGDKYYRVNLRTRRVDTVDPPYPRSIAQYWLGCPAPGHL | – | – | – | strongly expressed NANOG in the entirety of the colony | about ⅓ |
